Results published in the supplement of paper PMC7877785.
± gives the uncertainty stated by the source.

Test: self-splicing fitness, log relative to wild type (ln ratio); higher = more splicing; Tetrahymena group I intron in knt gene, E. coli kanamycin selection, DiMSum; sequences stand for … in CUCUCU…GGAGGGAAAAGUUAUCAGGCAUGCACCUGGUAGCUAGUCUUUAAACCAAUAGAUUGCAUCGGUUUAAAAGGCAAGACCGUCAAAUUGCGGGAAAGGGGUCAACAGCCGUUCAGUACCAAGUCUCAGGGGAAACUUUGAGAUGGCCUUGCAAAGGGUAUGGUAAUAAGCUGACGGACAUGGUCCUAACCACGCAGCCAAGUCCUAAGUCAACAGAUCUUCUGUUGAUAUGGAUGCAGUUCACAGACUAAAUGUCGGUCGGGGAAGAUGUAUUCUUCUCAUAAGAUAUAGUCGGACCUCUCCUUAAUGGGAGCUAGCGGAUGAAGUGAUGCAACACUGGAGCCGCUGGGAACUAAUUUGUAUGCGAAAGUAUAUUGAUUAGUUUUGGAGUACUCGUGGUCG
Procedure, shortened: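 Six replicate transformations of E. coli BL21(DE3) with a pET-22b(+) library were grown overnight at 37°C or 30°C. The library randomised all eight P1ex-region intron nucleotides, the intron lying in the knt kanamycin-resistance gene, and plates were LB agar with or without 25 μg/mL kanamycin plus 100 μg/mL carbenicillin, 50 μM IPTG and 0.2% rhamnose. Pooled colonies were amplicon-sequenced on an Illumina HiSeq 2500, and fitness is the DiMSum error-weighted combination of wild-type-normalised replicate fold changes, kanamycin versus none.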

Row | Sequence | self-splicing fitness (ln) (30 °C) | self-splicing fitness (ln) (37 °C)
1 | GCGUAGCAAUAUUACGGAUA | -1.67 ± 0.13 | -0.826 ± 0.13
2 | AGAAAGCAAUAUUACGUCGG | -1.37 ± 0.088 | -1.04 ± 0.11
3 | CGAAAGCAAUAUUACGCGUA | -2.68 ± 0.19 | -1.95 ± 0.18
4 | GCUUAGCAAUAUUACGAGAA | -1.2 ± 0.27 | -0.264 ± 0.22
5 | AUCAAGCAAUAUUACGCUCU | -0.452 ± 0.07 | 0.0492 ± 0.082
6 | UUUGAGCAAUAUUACGCAUA | – | -1.01 ± 0.29
7 | ACUAAGCAAUAUUACGACAU | -0.431 ± 0.011 | -0.0773 ± 0.032
8 | CUGGAGCAAUAUUACGACUU | -3.44 ± 0.38 | -2.38 ± 0.39
9 | UUGUAGCAAUAUUACGGGUG | -2.02 ± 0.11 | -0.808 ± 0.096
10 | UUCGAGCAAUAUUACGUGCU | -2.02 ± 0.18 | –
11 | CAUAAGCAAUAUUACGUCCG | -0.727 ± 0.081 | 1.11 ± 0.12
12 | GGGCAGCAAUAUUACGCUUC | – | -1.85 ± 0.17
13 | ACCCAGCAAUAUUACGCUUU | -0.704 ± 0.049 | 0.0854 ± 0.064
14 | AUCCAGCAAUAUUACGGGAA | -1.17 ± 0.079 | -0.654 ± 0.082
15 | UCCGAGCAAUAUUACGUCUC | -2.26 ± 0.21 | -2.99 ± 0.43
16 | GCCGAGCAAUAUUACGUUGC | -3.96 ± 0.25 | -2.73 ± 0.22
17 | UUCAAGCAAUAUUACGGUCG | -0.917 ± 0.1 | -0.62 ± 0.13
18 | GCAAAGCAAUAUUACGCCCA | -1.56 ± 0.16 | -0.194 ± 0.15
19 | UAUUAGCAAUAUUACGCAAU | -2.79 ± 0.28 | -1.77 ± 0.27
20 | ACCGAGCAAUAUUACGUAGU | -3.62 ± 0.18 | -2.26 ± 0.15
21 | CACGAGCAAUAUUACGCUUG | -3.27 ± 0.34 | -2.03 ± 0.47
22 | CAGCAGCAAUAUUACGUCGU | -3.42 ± 0.18 | -0.9 ± 0.09
23 | GCCCAGCAAUAUUACGUCUC | -1.3 ± 0.085 | -0.175 ± 0.086
24 | UCACAGCAAUAUUACGUAGA | -1.09 ± 0.063 | -0.0941 ± 0.075
25 | AGAUAGCAAUAUUACGUGGA | -3.21 ± 0.25 | -2.37 ± 0.28
26 | GGGAAGCAAUAUUACGCUUA | -0.798 ± 0.12 | -0.449 ± 0.12

Row | Sequence | self-splicing fitness (ln) (30 °C) | self-splicing fitness (ln) (37 °C)
27 | CCUCAGCAAUAUUACGCCGG | -3.32 ± 0.21 | -0.587 ± 0.15
28 | UGGAAGCAAUAUUACGAACU | 0.00939 ± 0.14 | -0.029 ± 0.13
29 | GAGAAGCAAUAUUACGGGAC | -2.56 ± 0.13 | -1.37 ± 0.12
30 | CCCAAGCAAUAUUACGUCCG | -3.6 ± 0.43 | -2.45 ± 0.3
31 | GCGGAGCAAUAUUACGUGGG | -2.01 ± 0.3 | -2.25 ± 0.34
32 | GCCUAGCAAUAUUACGUGGU | -3.71 ± 0.22 | -2.23 ± 0.25
33 | CGCGAGCAAUAUUACGGCGA | -2.29 ± 0.24 | -1.19 ± 0.21
34 | AUACAGCAAUAUUACGGCUU | 0.0959 ± 0.047 | 0.115 ± 0.057
35 | CCAAAGCAAUAUUACGCGGC | -3.34 ± 0.18 | -3.15 ± 0.32
36 | GGUUAGCAAUAUUACGCGAU | -2.48 ± 0.23 | -3.48 ± 0.46
37 | GCGUAGCAAUAUUACGAACU | -0.546 ± 0.13 | -0.322 ± 0.11
38 | CUUAAGCAAUAUUACGUAUG | -1.37 ± 0.056 | -1.24 ± 0.073
39 | CUCAAGCAAUAUUACGAGAA | -1.89 ± 0.31 | -1.1 ± 0.24
40 | AACCAGCAAUAUUACGUUAC | -2.93 ± 0.14 | -2.52 ± 0.17
41 | UUAUAGCAAUAUUACGAAUG | -2.43 ± 0.16 | -0.727 ± 0.17
42 | AAUCAGCAAUAUUACGGGGA | -1.82 ± 0.1 | -0.723 ± 0.1
43 | GGAGAGCAAUAUUACGUGGU | -3.28 ± 0.16 | -3.01 ± 0.26
44 | CAACAGCAAUAUUACGCGGA | -1.6 ± 0.1 | -1.83 ± 0.091
45 | UUUUAGCAAUAUUACGGUGC | -3.63 ± 0.24 | -2.98 ± 0.38
46 | AAGUAGCAAUAUUACGCCAA | -2.53 ± 0.24 | -1.55 ± 0.23
47 | CAGGAGCAAUAUUACGUGAA | -3.52 ± 0.38 | -3.2 ± 0.43
48 | UAAUAGCAAUAUUACGCUGG | -1.95 ± 0.14 | -1.85 ± 0.16
49 | GUAGAGCAAUAUUACGUAGG | -3.28 ± 0.17 | -1.96 ± 0.17
50 | GGCCAGCAAUAUUACGCAGU | -1.37 ± 0.12 | -1.86 ± 0.19
51 | AGAAAGCAAUAUUACGACAA | -0.576 ± 0.087 | 0.0351 ± 0.089
52 | GCUAAGCAAUAUUACGGCGC | -1.55 ± 0.11 | -0.159 ± 0.16

Row | Sequence | self-splicing fitness (ln) (30 °C) | self-splicing fitness (ln) (37 °C)
53 | UGUAAGCAAUAUUACGAAGG | -2.14 ± 0.15 | -1.92 ± 0.25
54 | GCAAAGCAAUAUUACGUGAC | -2.78 ± 0.12 | -1.1 ± 0.13
55 | UAGUAGCAAUAUUACGGAUU | -4.06 ± 0.47 | -0.834 ± 0.18
56 | CUUGAGCAAUAUUACGAAAU | -2.7 ± 0.2 | -3.68 ± 0.46
57 | CGUGAGCAAUAUUACGACCA | – | -0.768 ± 0.24
58 | CCUUAGCAAUAUUACGCAAC | – | -2.04 ± 0.48
59 | CGCCAGCAAUAUUACGUUCC | -2.71 ± 0.16 | -1.67 ± 0.37
60 | CUUUAGCAAUAUUACGGUAA | -2.37 ± 0.23 | -2.12 ± 0.26
61 | GGAGAGCAAUAUUACGUGUA | -2.77 ± 0.29 | -3.17 ± 0.33
62 | AUAAAGCAAUAUUACGUGGA | -3.9 ± 0.17 | -1.38 ± 0.1
63 | CGGUAGCAAUAUUACGAAGU | -2.86 ± 0.3 | -1.85 ± 0.25
64 | UCCUAGCAAUAUUACGUACG | -3.14 ± 0.18 | -1.78 ± 0.2
65 | CAGUAGCAAUAUUACGGUUU | -3.21 ± 0.22 | -0.724 ± 0.15
66 | AUCUAGCAAUAUUACGAGCA | -0.993 ± 0.18 | -0.654 ± 0.2
67 | CAACAGCAAUAUUACGAACG | 0.0149 ± 0.065 | 0.73 ± 0.084
68 | AGUCAGCAAUAUUACGCGGG | -2.8 ± 0.16 | -1.06 ± 0.2
69 | GGGCAGCAAUAUUACGUCUA | 0.309 ± 0.1 | -1.04 ± 0.1
70 | ACUUAGCAAUAUUACGCGCU | -0.535 ± 0.094 | -0.305 ± 0.097
71 | GGGUAGCAAUAUUACGCUGG | -2.61 ± 0.35 | -2.45 ± 0.42
72 | GUCGAGCAAUAUUACGCGUU | -1.64 ± 0.11 | -0.556 ± 0.14
73 | UUAGAGCAAUAUUACGUCUU | -1.62 ± 0.097 | -0.85 ± 0.13
74 | UGGAAGCAAUAUUACGACCC | -0.0757 ± 0.24 | -0.147 ± 0.25
75 | CUCCAGCAAUAUUACGUGCA | -3.43 ± 0.17 | -2.32 ± 0.13
76 | GGGAAGCAAUAUUACGCUGG | -2.97 ± 0.23 | -1.73 ± 0.18
77 | CCCUAGCAAUAUUACGCGUA | -2.29 ± 0.31 | -0.911 ± 0.2
